B1: Azoarcus group I ribozyme (parent)
chain: GUGCCUUGCGCCGGGAAACCACGCAAGGGAUGGUGUCAAAUUCGGCGAAACCUAAGCGCCCGCCCGGGCGUAUGGCAACGCCGAGCCAAGCUUCGGCGCCUGCGCCGAUGAAGGUGUAGAGACUAGACGGCACCCACCUAAGGCAAACGCUAUGGUGAAGGCAUAGUCCAGGGAGUGGCGAAAGUCACACAAACCGG

The variants in the series derive from B1. As to the kind of experiment: reverse-splicing fitness (ratio to wild type); higher = more active; in vitro selection; Mg2+ level not given. The procedure, abridged: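 An in vitro group I ribozyme library with randomized positions was T7-transcribed and gel-purified. In triplicate, 10 pmol RNA in EPPS pH 7.5 was reacted with 50 pmoles of a 30-nt RNA substrate for 1 h at 37 °C across several added MgCl2 levels (1–48 mM), then stopped with EDTA. Products were reverse transcribed from a substrate-complementary primer, PCR-amplified and sequenced (HiSeq 4000). Fitness is a variant's read proportion after selection over that before, normalised to wild type.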
As to GUGCCUUGCGCCGGGAAACCACGCAAGGGAUGGUGUCAAAUUCGGCGAAACCUAAGCGCCCGCCCGGGCGUAUGGCAACGCUGAGCCAAGCUUCGGCGCCUGCGCCGAUGGAGGUGUAGGGACUAGACGGCACCCACCUAAGGCAAACGAUAUGGUGAAGGCAUAGUCAAGGGAGAGGCGAAAGUCACACAAACCGG, the reverse-splicing fitness was determined as 0.0173.

Consider GUGCCUUGCGCCGGGAAACCACGCAAGGGAUGGUGUCAAAUUCGGCGAAACCUAAGCGCCCGCCCGGGCGUAUGGCAACGCUGAGCCAAGCUUCGGCGCCUGCGCCGAUGGAGGUGUAGGGACUAGACGGCACCCACCUAAGGCAAACGAUAUGGUGAAGGCAUAGUCAAGGGAGCGGCGAAAGUCACACAAACCGG, for which the reverse-splicing fitness was 0.0192.

Consider GUGCCUUGCGCCGGGAAACCACGCAAGGGAUGGUGUCAAAUUCGGCGAAACCUAAGCGCCCGCCCGGGCGUAUGGCAACGCUGAGCCAAGCUUCGGCGCCUGCGCCGAUGGAGGUGUAGGGACUAGACGGCACCCACCUAAGGCAAACGAUAUGGUGAAGGCAUAGUCAAGGGAGGGGCGAAAGUCACACAAACCGG, for which the reverse-splicing fitness was found to be 0.00577. As for GUGCCUUGCGCCGGGAAACCACGCAAGGGAUGGUGUCAAAUUCGGCGAAACCUAAGCGCCCGCCCGGGCGUAUGGCAACGCUGAGCCAAGCUUCGGCGCCUGCGCCGAUGGAGGUGUAGGGACUAGACGGCACCCACCUAAGGCUAACGCUAUGGUGAAGGCAUAGUCCAGGGAGAGGCGAAAGUCACACAAACCGG, the figure is 0.0116; as for GUGCCUUGCGCCGGGAAACCACGCAAGGGAUGGUGUCAAAUUCGGCGAAACCUAAGCGCCCGCCCGGGCGUAUGGCAACGCUGAGCCAAGCUUCGGCGCCUGCGCCGAUGGAGGUGUAGGGACUAGACGGCACCCACCUAAGGCUAACGCUAUGGUGAAGGCAUAGUCCAGGGAGCGGCGAAAGUCACACAAACCGG, 0.0141. As for GUGCCUUGCGCCGGGAAACCACGCAAGGGAUGGUGUCAAAUUCGGCGAAACCUAAGCGCCCGCCCGGGCGUAUGGCAACGCUGAGCCAAGCUUCGGCGCCUGCGCCGAUGGAGGUGUAGGGACUAGACGGCACCCACCUAAGGCUAACGCUAUGGUGAAGGCAUAGUCCAGGGAGGGGCGAAAGUCACACAAACCGG, the figure is 0.00443. Then GUGCCUUGCGCCGGGAAACCACGCAAGGGAUGGUGUCAAAUUCGGCGAAACCUAAGCGCCCGCCCGGGCGUAUGGCAACGCUGAGCCAAGCUUCGGCGCCUGCGCCGAUGGAGGUGUAGGGACUAGACGGCACCCACCUAAGGCAAACGAUAUGGUGAAGGCAUAGUCUAGGGAGGGGCGAAAGUCACACAAACCGG, with 0.00765. Consider GUGCCUUGCGCCGGGAAACCACGCAAGGGAUGGUGUCAAAUUCGGCGAAACCUAAGCGCCCGCCCGGGCGUAUGGCAACGCUGAGCCAAGCUUCGGCGCCUGCGCCGAUGGAGGUGUAGGGACUAGACGGCACCCACCUAAGGCAAACGAUAUGGUGAAGGCAUAGUCUAGGGAGAGGCGAAAGUCACACAAACCGG, for which the reverse-splicing fitness was 0.0248. Then GUGCCUUGCGCCGGGAAACCACGCAAGGGAUGGUGUCAAAUUCGGCGAAACCUAAGCGCCCGCCCGGGCGUAUGGCAACGCUGAGCCAAGCUUCGGCGCCUGCGCCGAUGGAGGUGUAGGGACUAGACGGCACCCACCUAAGGCAAACGAUAUGGUGAAGGCAUAGUCUAGGGAGCGGCGAAAGUCACACAAACCGG, with 0.0157; and GUGCCUUGCGCCGGGAAACCACGCAAGGGAUGGUGUCAAAUUCGGCGAAACCUAAGCGCCCGCCCGGGCGUAUGGCAACGCUGAGCCAAGCUUCGGCGCCUGCGCCGAUGGAGGUGUAGGGACUAGACGGCACCCACCUAAGGCAAACGGUAUGGUGAAGGCAUAGUCAAGGGAGUGGCGAAAGUCACACAAACCGG, with 0.00895.

As to GUGCCUUGCGCCGGGAAACCACGCAAGGGAUGGUGUCAAAUUCGGCGAAACCUAAGCGCCCGCCCGGGCGUAUGGCAACGCUGAGCCAAGCUUCGGCGCCUGCGCCGAUGGAGGUGUAGGGACUAGACGGCACCCACCUAAGGCAAACGGUAUGGUGAAGGCAUAGUCGAGGGAGUGGCGAAAGUCACACAAACCGG, the reverse-splicing fitness was found to be 0.00749.

For GUGCCUUGCGCCGGGAAACCACGCAAGGGAUGGUGUCAAAUUCGGCGAAACCUAAGCGCCCGCCCGGGCGUAUGGCAACGCUGAGCCAAGCUUCGGCGCCUGCGCCGAUGGAGGUGUAGGGACUAGACGGCACCCACCUAAGGCAAACGAUAUGGUGAAGGCAUAGUCAAGGGAGUGGCGAAAGUCACACAAACCGG, the reverse-splicing fitness was determined as 0.00997. Consider GUGCCUUGCGCCGGGAAACCACGCAAGGGAUGGUGUCAAAUUCGGCGAAACCUAAGCGCCCGCCCGGGCGUAUGGCAACGCUGAGCCAAGCUUCGGCGCCUGCGCCGAUGGAGGUGUAGGGACUAGACGGCACCCACCUAAGGCAAACGAUAUGGUGAAGGCAUAGUCUAGGGAGUGGCGAAAGUCACACAAACCGG, for which the reverse-splicing fitness worked out at 0.00735. Consider GUGCCUUGCGCCGGGAAACCACGCAAGGGAUGGUGUCAAAUUCGGCGAAACCUAAGCGCCCGCCCGGGCGUAUGGCAACGCUGAGCCAAGCUUCGGCGCCUGCGCCGAUGGAGGUGUAGGGACUAGACGGCACCCACCUAAGGCAAACGAUAUGGUGAAGGCAUAGUCGAGGGAGUGGCGAAAGUCACACAAACCGG, for which the reverse-splicing fitness was 0.00939. As for GUGCCUUGCGCCGGGAAACCACGCAAGGGAUGGUGUCAAAUUCGGCGAAACCUAAGCGCCCGCCCGGGCGUAUGGCAACGCUGAGCCAAGCUUCGGCGCCUGCGCCGAUGGAGGUGUAGGGACUAGACGGCACCCACCUAAGGCAAACGAUAUGGUGAAGGCAUAGUCGAGGGAGAGGCGAAAGUCACACAAACCGG, the figure is 0.0186.

The record behind these values is the RNAGym collection of RNA variant scans (doi:10.1093/molbev/msab373).
